This assay has as its target yeast Nsp1p FG-fragment Nsp1p-12FF (residues 262-492; 1xFG, 11xFSFG) (yeast) (UniProt P14907). In words: plasmonic nanopore sensing (shift of the extinction dip); cNsp1 grafted to the interior silicon nitride walls of smaller nanopores (upper diameter 80-90 nm, lower 50-60 nm); Kapβ1 added in increasing concentrations in PBS; equilibrium dip shift averaged over ~10 min; fit to a two component Langmuir isotherm.

From paper PMC6308133 come the findings set out here.

“karyopherinβ1 (from UniProt Q14974 1-876) (natural protein)”: the K1 (two component Langmuir isotherm, configuration 1) is 341 nM and the K2 (two component Langmuir isotherm, configuration 2) is 3.8 µM.
